Test results published in article PMC11059001.

Target: complement C1q, P02745;P02746;P02747
Assay: MST
Conditions: chain shown with the change

Row | Binder | Kd
1 | truncated Trichinella spiralis calreticulin TsCRT^Δ (22-209, GSG linker, 305-364) W323A; V325A (protein) MGSSHHHHHHSSGENLYFQGGSEPTIYLKETFDDGDAWKERWVQSKHKDDYGEWQLSHGKLFADENDMGLKTMQDARFYSLSRKFDKVVDNKDKPLVIVYTVKHEQDIDCGGGYIKLMLENTDLEDFNSDTPYRIMFGPDICGPEKRAVHSILWHDGKNYEKRKNAIAMADIFTHAYKLIIFPNNSYEIWVNNDKEAYGRLEDDWTMTEPGSGPVPELYRYKGLGAIGFELAQAKSGTIFDNILITDDPEYAKEFIDKQLEALRPIEKVESDK | 22.9 µM
2 | truncated Trichinella spiralis calreticulin TsCRT^Δ (22-209, GSG linker, 305-364) D139A; H149A (protein) EPTIYLKETFDDGDAWKERWVQSKHKDDYGEWQLSHGKLFADENDMGLKTMQDARFYSLSRKFDKVVDNKDKPLVIVYTVKHEQDIDCGGGYIKLMLENTDLEDFNSDTPYRIMFGPAICGPEKRAVASILWHDGKNYEKRKNAIAMADIFTHAYKLIIFPNNSYEIWVNNDKEAYGRLEDDWTMTEPGSGPVPELYRYKGLGAIGFELWQVKSGTIFDNILITDDPEYAKEFIDKQLEALRPIEKVESDK | 19 µM
3 | truncated Trichinella spiralis calreticulin TsCRT^Δ (22-209, GSG linker, 305-364) C141A; K145A (protein) EPTIYLKETFDDGDAWKERWVQSKHKDDYGEWQLSHGKLFADENDMGLKTMQDARFYSLSRKFDKVVDNKDKPLVIVYTVKHEQDIDCGGGYIKLMLENTDLEDFNSDTPYRIMFGPDIAGPEARAVHSILWHDGKNYEKRKNAIAMADIFTHAYKLIIFPNNSYEIWVNNDKEAYGRLEDDWTMTEPGSGPVPELYRYKGLGAIGFELWQVKSGTIFDNILITDDPEYAKEFIDKQLEALRPIEKVESDK | 34.8 µM
4 | truncated Trichinella spiralis calreticulin TsCRT^Δ (22-209, GSG linker, 305-364) M135A; I151A (protein) EPTIYLKETFDDGDAWKERWVQSKHKDDYGEWQLSHGKLFADENDMGLKTMQDARFYSLSRKFDKVVDNKDKPLVIVYTVKHEQDIDCGGGYIKLMLENTDLEDFNSDTPYRIAFGPDICGPEKRAVHSALWHDGKNYEKRKNAIAMADIFTHAYKLIIFPNNSYEIWVNNDKEAYGRLEDDWTMTEPGSGPVPELYRYKGLGAIGFELWQVKSGTIFDNILITDDPEYAKEFIDKQLEALRPIEKVESDK | 5.99 µM
